B1: in vitro translated 35S-labeled pro-caspase-9 (enzyme, UniProt P55211 1-416, looked up)
chain: MDEADRRLLRRCRLRLVEELQVDQLWDALLSRELFRPHMIEDIQRAGSGSRRDQARQLIIDLETRGSQALPLFISCLEDTGQDMLASFLRTNRQAAKLSKPTLENLTPVVLRPEIRKPEVLRPETPRPVDIGSGGFGDVGALESLRGNADLAYILSMEPCGHCLIINNVNFCRESGLRTRTGSNIDCEKLRRRFSSLHFMVEVKGDLTAKKMVLALLELAQQDHGALDCCVVVILSHGCQASHLQFPGAVYGTDGCPVSVEKIVNIFNGTSCPSLGGKPKLFFIQACGGEQKDHGFEVASTSPEDESPGSNPEPDATPFQEGLRTFDQLDAISSLPTPSDIFVSYSTFPGFVSWRDPKSGSWYVETLDDIFEQWAHSEDLQSLLLRVANAVSVKGIYKQMPGCFNFLRKKLFFKTS
modifications: 35S-L-methionine labeled
notes: domain: zymogen; also called zymogen of caspase-9; Mch6
B2: FLAG tagged pro-caspase-9 (enzyme, UniProt P55211 1-416, looked up, not shown: small tags and cut ends)
chain: B1 chain
notes: domain: zymogen; also called Flag-pro-caspase-9; FLAG-caspase-9
B3: GST-c-IAP-1(BIR) (other, human, UniProt Q13490 1-350, looked up)
chain: MHKTASQRLFPGPSYQNIKSIMEDSTILSDWTNSNKQKMKYDFSCELYRMSTYSTFPAGVPVSERSLARAGFYYTGVNDKVKCFCCGLMLDNWKLGDSPIQKHKQLYPSCSFIQNLVSASLGSTSKNTSPMRNSFAHSLSPTLEHSSLFSGSYSSLSPNPLNSRAVEDISSSRTNPYSYAMSTEEARFLTYHMWPLTFLSPSELARAGFYYIGPGDRVACFACGGKLSNWEPKDDAMSEHRRHFPNCPFLENSLETLRFSISNLSMQTHAARMRTFMYWPSSVPVQPEQLASAGFYYVGRNDDVKCFCCDGGLRCWESGDDPWVEHAKWFPRCEFLIRMKGQEFVDEIQG
notes: range 1-350; not shown: glutathione S-transferase encoded by vector pGEX4T; vector linker not described
B4: GST-CD40 cytosolic domain (other, UniProt P25942 216-277, looked up)
chain: KKVAKKPTNKAPHPKQEPQEINFPDDLPGSNTAAPVQETLHGCQPVTQEDGKESRISVQERQ
notes: domain: cytosolic domain; Control protein; not shown: glutathione S-transferase
B5: GST-c-IAP-2(BIR) (other, human, UniProt Q13489 1-335, looked up)
chain: MNIVENSIFLSNLMKSANTFELKYDLSCELYRMSTYSTFPAGVPVSERSLARAGFYYTGVNDKVKCFCCGLMLDNWKRGDSPTEKHKKLYPSCRFVQSLNSVNNLEATSQPTFPSSVTNSTHSLLPGTENSGYFRGSYSNSPSNPVNSRANQDFSALMRSSYHCAMNNENARLLTFQTWPLTFLSPTDLAKAGFYYIGPGDRVACFACGGKLSNWEPKDNAMSEHLRHFPKCPFIENQLQDTSRYTVSNLSMQTHAARFKTFFNWPSSVLVNPEQLASAGFYYVGNSDDVKCFCCDGGLRCWESGDDPWVQHAKWFPRCEYLIRIKGQEFIRQVQ
notes: range 1-335; not shown: glutathione S-transferase encoded by vector pGEX4T; vector linker not described
B6: purified recombinant active caspase-3 (His6-tagged) (enzyme)
chain 1: SGISLDNSYKMDYPEMGLCIIINNKNFHKSTGMTSRSGTDVDAANLRETFRNLKYEVRNKNDLTREEIVELMRDVSKEDHSKRSSFVCVLLSHGEEGIIFGTNGPVDLKKITNFFRGDRCRSLTGKPKLFIIQACRGTELDCGIETD
chain 2: SGVDDDMACHKIPVEADFLYAYSTAPGYYSWRNSKDGSWFIQSLCAMLKQYADKLEFMHILTRVNRKVATEFESFSFDATFHAKKQIPCIVSMLTKELYFYH
notes: domain: large subunit;domain: small subunit; also called His6-caspase-3; CPP32
B7: processed (active) caspase-3 of 293 cell cytosolic extracts treated with cytochrome c and dATP (enzyme, human)
chain 1: B6 chain 1
chain 2: B6 chain 2
notes: domain: large subunit;domain: small subunit; Endogenous protein of the extract, detected with anti-caspase-3 antiserum that sees only the zymogen and the large subunit; also called processed caspase-3; band 3

Legend:
293T cells = test: Bax-induced apoptosis and caspase-3 processing in transfected 293T cells; assay type: cell-based, Human; conditions: PI staining, 24 hr; Bax expressing cells treated with 50 µM inhibitor (Bax alone about 25%)
Procedure: N-benzyloxycarbonyl-Val-Ala-Asp fluoromethylketone (zVAD-fmk; 50 µM) (Bachem California; Torrance CA) was added immediately after transfection of the Bax plasmid. Transfection efficiency was uniformly 80-90%, as determined by X-Gal staining following cotransfection with pCMV-βGal.
Cells were maintained in culture for 24 hr, then floating and attached cells were harvested and an aliquot was removed and the percent of dead cells was determined by either trypan blue or propidium iodide (PI) dye exclusion assay. A second aliquot was used to assess the percentage of apoptotic cells with subdiploid DNA content by FACS analysis of PI stained, ethanol fixed cells. The remaining cell pellets were lysed in 10 mM HEPES (pH 7.5), 142 mM KCl, 1 mM EGTA, 1 mM DTT, 0.2% NP-40, 0.1 mM PMSF and used for immunoblot analysis or for protease assays.

pro-caspase-9 processing = test: Cytochrome c-induced processing of pro-caspase-9 in 293 cell cytosolic extracts; assay type: biochemical; conditions: 10 µM cytochrome c, 1 mM dATP, 30 °C, 30 minutes
Procedure: For the results shown in Figure 4, in vitro translated ^35S-labeled pro-caspase-9 was added to cytosolic extracts from 293 cells, and subsequently incubated for 30 min at 30 °C with (lanes 2-6) or without (lane 1) 10 µM cytochrome c and 1 mM dATP in the presence or absence of 0.2 µM GST-IAP proteins or a GST control protein. Cytochrome c induced processing of pro-caspase-9 was subsequently monitored by SDS-PAGE and autoradiography.
Pro-caspase-9 inhibition by Ac-DEVD-fmk, zVAD-fmk and XIAP was compared as follows. In vitro translated ^35S-labeled pro-caspase-9 was added to cytosolic extracts from 293 cells containing 10 µM cytochrome c and 1 mM dATP. Samples were incubated at 30 °C for 30 minutes in the presence of the indicated concentrations of inhibitors. Proteins were separated on SDS-PAGE gels, dried directly, and exposed to film.

[1] = molecular target: purified recombinant active caspase-7 (His6-tagged) (UniProt P55210); test: progress curves of DEVD-AFC hydrolysis by caspase-7 (150 pM) with 0.025 to 1.5 µM IAP
GST-c-IAP-1 [2] = molecular target: T1, GST-c-IAP-1 (human, UniProt Q13490 1-618); test: opening sentence of Example VI
T1 construct: domain: full length; also called HIAP-2; hMIHB; not shown: glutathione S-transferase encoded by vector pGEX4T; vector linker not described

GST-c-IAP-2 [3] = molecular target: T2, GST-c-IAP-2 (human, UniProt Q13489 1-604); test: opening sentence of Example VI
T2 construct: domain: full length; also called HIAP-1; hMIHC; not shown: glutathione S-transferase encoded by vector pGEX4T; vector linker not described

myc-tagged c-IAP-1 = molecular target: T3, myc-tagged c-IAP-1 (human, UniProt Q13490 1-618); test: legend of Figure 8: anti-myc immunoprecipitation, anti-FLAG immunoblot
T3 construct: also called pcDNA3myc-c-IAP-1; pcDNA3-myc-IAP-1; not shown: Myc tag of pcDNA3myc

myc-tagged c-IAP-2 = molecular target: T4, myc-tagged c-IAP-2 (human, UniProt Q13489 1-604); test: as above
T4 construct: also called pcDNA3myc-c-IAP-2; pcDNA3-myc-c-IAP-2; not shown: Myc tag of pcDNA3myc

[4] = molecular target: B6; test: progress curves of DEVD-AFC hydrolysis by caspase-3 (7 pM) with 0.025 to 1.5 µM IAP
[5] = molecular target: B6; test: GST pull-down on glutathione-SEPHAROSE, immunoblot
GST-c-IAP-1 [6] = molecular target: T1, GST-c-IAP-1; test: opening sentence of Example IV
GST-c-IAP-2 [7] = molecular target: T2, GST-c-IAP-2; test: opening sentence of Example IV
GST-c-IAP-1(BIR) = molecular target: B3; test: glutathione-SEPHAROSE affinity chromatography
GST-c-IAP-1 [8] = molecular target: T1, GST-c-IAP-1; test: GST-IAP added to 293 extracts previously treated with cytochrome c, recovered on glutathione-Sepharose, anti-caspase-3 immunoblot
GST-c-IAP-2 [9] = molecular target: T2, GST-c-IAP-2; test: as above

## N-benzyloxycarbonyl-Val-Ala-Asp fluoromethylketone [zVAD-fmk]
293T cells
  apoptotic cells: about 5%
pro-caspase-9 processing
  concentration to completely abolish processing of pro-caspase-9: at least 5 µM

## GST-c-IAP-2 (from UniProt Q13489 1-604)
[1]
  Ki: 26 nM

## B1
GST-c-IAP-1 [2]
  binding result: binds
GST-c-IAP-2 [3]
  binding result: binds

## B2
myc-tagged c-IAP-1
  binding result: binds
myc-tagged c-IAP-2
  binding result: binds

## B3
[1]
  Ki: 160 nM
[4]
  Ki: 330 nM

## B4
[5]
  binding result: no binding

## B5
[1]
  Ki: 238 nM
[4]
  Ki: 260 nM

## B6
GST-c-IAP-1 [6]
  binding result: binds
GST-c-IAP-2 [7]
  binding result: binds
GST-c-IAP-1(BIR)
  binding result: binds

## B7
GST-c-IAP-1 [8]
  binding result: binds
GST-c-IAP-2 [9]
  binding result: binds
